According to patent publication US20260116966A1 (KEYMED BIOSCIENCES CHENGDU, published 2026):

How the values were obtained:
Cynomolgus GPRC5D = target: T1, Cynomolgus GPRC5D (Cynomolgus, UniProt Q9NZD1 1-343 (human entry)); assay: flow cytometry on CHO-cyGPRC5D cells
T1 construct: Full length, on stably transfected cells (HEK293-cyGPRC5D, CHO-cyGPRC5D); also called cyGPRC5D
T1 chain: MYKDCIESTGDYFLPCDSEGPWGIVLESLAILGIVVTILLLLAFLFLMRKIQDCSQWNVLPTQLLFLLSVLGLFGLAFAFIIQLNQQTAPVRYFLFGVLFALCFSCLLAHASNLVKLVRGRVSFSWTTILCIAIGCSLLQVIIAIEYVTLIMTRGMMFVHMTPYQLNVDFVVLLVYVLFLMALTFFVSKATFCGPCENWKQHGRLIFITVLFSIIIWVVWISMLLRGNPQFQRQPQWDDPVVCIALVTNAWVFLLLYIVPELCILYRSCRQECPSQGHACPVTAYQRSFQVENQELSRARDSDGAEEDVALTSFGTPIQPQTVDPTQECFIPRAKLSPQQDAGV
Procedure: (§1) The binding of the antibodies to human and Cynomolgus GPRC5D stably transfected cells was detected by flow cytometry. […] Then, 100 μl/well of the cell suspension was added to a 96-well U-shaped plate, and centrifuged at 300 g for 5 min. The supernatant was discarded. 100 μL per well of serially diluted antibody was added (initial concentration: 200 nM, 3-fold dilution, 12 gradients), and incubated at 4° C. for 45 min. The secondary antibody 50 μL/well of Alexa Fluro647 labeled goat anti-human IgG Fc (1:300 dilution) was added, incubated on ice for 45 min, and detected by flow cytometry.

human GPRC5D [1] = target: T2, human GPRC5D (human, UniProt Q9NZD1 1-345); assay: flow cytometry on CHO-hGPRC5D cells
T2 construct: Full length, on stably transfected cells (HEK293-hGPRC5D, CHO-hGPRC5D); Also used here for the endogenous GPRC5D of the GPRC5D+ myeloma lines MM.1R, MM.1S and NCI-H929; also called hGPRC5D; G-protein-coupled receptor family C group 5 member D
T2 sequence (Q9NZD1 whole entry): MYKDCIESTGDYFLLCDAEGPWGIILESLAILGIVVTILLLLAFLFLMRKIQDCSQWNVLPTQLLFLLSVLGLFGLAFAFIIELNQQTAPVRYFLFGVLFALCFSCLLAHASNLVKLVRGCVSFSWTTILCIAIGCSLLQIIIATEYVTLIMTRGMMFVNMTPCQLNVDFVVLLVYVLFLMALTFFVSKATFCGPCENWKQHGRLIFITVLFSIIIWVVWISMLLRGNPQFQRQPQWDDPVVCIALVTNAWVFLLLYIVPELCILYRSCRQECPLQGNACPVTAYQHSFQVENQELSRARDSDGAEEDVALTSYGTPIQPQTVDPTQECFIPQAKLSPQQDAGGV
Procedure: as §1

human GPRC5D [2] = target: T2, human GPRC5D; assay: cell-based or functional assay
[3] = target: T3, CD3 receptor on the surface of Jurkat cells (human, UniProt P07766 23-207); assay: flow cytometry on Jurkat cells
T3 construct: whole, on cells; Whole CD3/TCR complex on Jurkat cells; also called Jurkat T
T3 sequence (P07766 23-207): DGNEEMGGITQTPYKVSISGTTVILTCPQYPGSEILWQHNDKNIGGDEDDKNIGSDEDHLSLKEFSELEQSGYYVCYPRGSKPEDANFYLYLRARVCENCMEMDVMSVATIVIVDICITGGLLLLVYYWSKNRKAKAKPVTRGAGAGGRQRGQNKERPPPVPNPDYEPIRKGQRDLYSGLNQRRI
Procedure: Jurkat cells in logarithmic growth phase were added with 200 μg/mL mouse IgG, and allowed to stand in an ice bath for 30 min. The cells were adjusted with 4% calf serum to 5×10⁵ cells/mL. 100 μL per well was added to a 96-well U-shaped plate, and centrifuged at 300 g. The supernatant was removed. 100 μL per well of serially diluted antibody was added, and incubated at 4° C. for 60 min. The secondary antibody 50 μL/well of Alexa Fluro647 labeled goat anti-human IgG Fc (1:300 dilution) was added, and incubated on ice for 20 min. After washing once, 50 μL/well of PI was added, incubated for 5 min, and detected by flow cytometry.

human GPRC5D [4] = target: T2, human GPRC5D; assay: flow cytometry, HEK293-hGPRC5D cells
Procedure: Cell suspensions of HEK293-hGPRC5D and HEK293-hBCMA stably transfected cells in logarithmic growth phase were adjusted to 5×10⁵ cells/ml. Then, 100 μl/well of the cell suspension was added to a 96-well U-shaped plate, and centrifuged at 300 g for 5 min. The supernatant was discarded. 100 μL per well of serially diluted antibody was added, and incubated at 4° C. for 60 min. The secondary antibody 50 μL/well of Alexa Fluro647 labeled goat anti-human IgG Fc (1:300 dilution) was added, and incubated on ice for 20 min. After washing once, 50 μL/well of PI solution was added, incubated for 5 min, and detected by flow cytometry.

[5] = target: T4, biotinylated CD3 recombinant antigen (CD3εγ) (Homo sapiens (Human), UniProt P07766 23-126; P09693 23-116, Biotinylated; site and chemistry not stated. The letters do not carry the biotin.); assay: BLI, biotinylated antigen on SA probe, antibody as analyte
T4 construct: also called CD3e antigen; copies: 1 + 1
T4 sequence (P07766 23-126 limits assumed, chain 1 of 2): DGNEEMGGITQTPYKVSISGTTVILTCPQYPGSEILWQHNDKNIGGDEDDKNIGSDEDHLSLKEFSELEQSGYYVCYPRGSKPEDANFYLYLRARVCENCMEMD
T4 sequence (P09693 23-116 limits assumed, chain 2 of 2): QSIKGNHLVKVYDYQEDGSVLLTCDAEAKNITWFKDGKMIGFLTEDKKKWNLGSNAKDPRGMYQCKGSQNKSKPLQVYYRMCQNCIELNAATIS

B1: anti-GPRC5D chimeric antibody 8D1 (antibody, V domains shown)
VH: QVQLQQPGAELVKPGASVKLSCKASGYTFTSYYMYWVKQRPGQGLEWIGGINPSNGGTKYNEKFKSKATLTVDKSSSTAFMQLSSLTSEDSAVYYCTRGSLRSYYYAMDYWGQGTSVTVSS
VL: DIQMTQTTSSLSASLGDRVTISCRASQDISNYLNWYQQKPDGTVKLLIYYTSRLHSGVPSRFSGSGSGTDYSLTISNLEQEDLATYFCQQGYSLPYTFGGGTKLEIK
B1 was tested, and the “EC50 (read off the curve)” value (Cynomolgus GPRC5D) was about 0.4 nM and the binding result (human GPRC5D [1]) was “binds”.

B2: GPRC5D × BCMA × CD3 triTCE-v1 trispecific antibody (other)
light 1: DIVLTQSPASLAVSPGQRATITCRASKSVSTSGYSYMHWYQKKPGQPPKLLIYLASNLESGVPARFSGSGSGTDFTLTINPVEAEDTANYYCQHSRELPWTFGQGTKVEIKRTVAAPSVFIFPPSDEQLKSGTASVVCLLNNFYPREAKVQWKVDNALQSGNSQESVTEQDSKDSTYSLSSTLTLSKADYEKHKVYACEVTHQGLSSPVTKSFNRGEC
heavy 1: DIQMTQSPSSLSASVGDRVTITCQASQNVGTNVAWYQQKPGQAPKALIYSASYLNSGVPSRFSGSGSGTDFTFTISSLQPEDIATYFCQQYNSYLLTFGCGTKVEIKGGGGSGGGGSGGGGSQVQLVQSGAEVKKPGSSVKVSCKASGYSFTGYTMNWVRQAPGQCLEWMGLINPYNGGTRYNQKFQGRVTITADESTSTAYMELSSLRSEDTAVYYCARWALRYGMDYWGQGTLVTVSSGGGGSGGGGSGGGGSQVQLVQSGSELKKPGASVKVSCKASGYIFTNFGMNWVREAPGQGLEWMGWINTYTGEQIYADGFTGRFVFSLDTSVSTAYLQISSLKAEDTAVYFCARGEIYYGYDVGFVYWGQGTLVTVSSASTKGPSVFPLAPCSRSTSESTAALGCLVKDYFPEPVTVSWNSGALTSGVHTFPAVLQSSGLYSLSSVVTVPSSSLGTKTYTCNVDHKPSNTKVDKRVESKYGPPCPPCPAPEFEGGPSVFLFPPKPKDTLMISRTPEVTCVVVDVSQEDPEVQFNWYVDGVEVHNAKTKPREEQFNSTYRVVSVLTVLHQDWLNGKEYKCKVSNKGLASSIEKTISKAKGQPREPQVCTLPPSQEEMTKNQVSLSCAVKGFYPSDIAVEWESNGQPENNYKTTPPVLDSDGSFFLVSKLTVDKSRWQEGNVFSCSVMHEALHNHYTQKSLSLSLGK
light 2: QAVVTQEPSLTVSPGGTVTLTCRSSTGAVTTSNYANWVQEKPGQAPRGLIGGTNKRAPWTPARFSGSLLGGKAALTITGAQAEDEAEYYCVLWYSNLWVFGGGTKLTVLGQPKAAPSVTLFPPSSEELQANKATLVCLISDFYPGAVTVAWKADSSPVKAGVETTTPSKQSNNKYAASSYLSLTPEQWKSHRSYSCQVTHEGSTVEKTVAPTECS
heavy 2: EVQLVESGGGLVQPGGSLRLSCAASGFTFNTYAMNWVRKAPGKGLEWVGRIRSKYNNYATYYADSVKDRFTISRDDSKNSLYLQMNSLKTEDTAVYYCVRHGNFGNSYVSWFAYWGQGTLVTVSSASTKGPSVFPLAPCSRSTSESTAALGCLVKDYFPEPVTVSWNSGALTSGVHTFPAVLQSSGLYSLSSVVTVPSSSLGTKTYTCNVDHKPSNTKVDKRVESKYGPPCPPCPAPEFEGGPSVFLFPPKPKDTLMISRTPEVTCVVVDVSQEDPEVQFNWYVDGVEVHNAKTKPREEQFNSTYRVVSVLTVLHQDWLNGKEYKCKVSNKGLASSIEKTISKAKGQPREPQVYTLPPCQEEMTKNQVSLWCLVKGFYPSDIAVEWESNGQPENNYKTTPPVLDSDGSFFLYSKLTVDKSRWQEGNVFSCSVMHEALHNHYTQKSLSLSLGK
notes: Trispecific antibody: GPRC5D scFv fused to the N-terminus of the heavy chain of the BCMA arm
In the case of B2, the “TDCC EC50 (nM), HEK293-hGPRC5D” value (human GPRC5D [2]) is reported as 0.074 nM, the binding result [3] is reported as “binds” and the EC50 (human GPRC5D [4]) is reported as 5.7 nM.

B3: GPRC5D × BCMA × CD3 triTCE-v3 trispecific antibody (other)
light 1: QAVVTQEPSLTVSPGGTVTLTCRSSTGAVTTSNYANWVQEKPGQAPRGLIGGTNKRAPWTPARFSGSLLGGKAALTITGAQAEDEAEYYCVLWYSNLWVFGGGTKLTVLGQPKAAPSVTLFPPSSEELQANKATLVCLISDFYPGAVTVAWKADSSPVKAGVETTTPSKQSNNKYAASSYLSLTPEQWKSHRSYSCQVTHEGSTVEKTVAPTECS
heavy 1: DIQMTQSPSSLSASVGDRVTITCQASQNVGTNVAWYQQKPGQAPKALIYSASYLNSGVPSRFSGSGSGTDFTFTISSLQPEDIATYFCQQYNSYLLTFGCGTKVEIKGGGGSGGGGSGGGGSQVQLVQSGAEVKKPGSSVKVSCKASGYSFTGYTMNWVRQAPGQCLEWMGLINPYNGGTRYNQKFQGRVTITADESTSTAYMELSSLRSEDTAVYYCARWALRYGMDYWGQGTLVTVSSGGGGSGGGGSGGGGSEVQLVESGGGLVQPGGSLRLSCAASGFTFNTYAMNWVRKAPGKGLEWVGRIRSKYNNYATYYADSVKDRFTISRDDSKNSLYLQMNSLKTEDTAVYYCVRHGNFGNSYVSWFAYWGQGTLVTVSSASTKGPSVFPLAPCSRSTSESTAALGCLVKDYFPEPVTVSWNSGALTSGVHTFPAVLQSSGLYSLSSVVTVPSSSLGTKTYTCNVDHKPSNTKVDKRVESKYGPPCPPCPAPEFEGGPSVFLFPPKPKDTLMISRTPEVTCVVVDVSQEDPEVQFNWYVDGVEVHNAKTKPREEQFNSTYRVVSVLTVLHQDWLNGKEYKCKVSNKGLASSIEKTISKAKGQPREPQVYTLPPCQEEMTKNQVSLWCLVKGFYPSDIAVEWESNGQPENNYKTTPPVLDSDGSFFLYSKLTVDKSRWQEGNVFSCSVMHEALHNHYTQKSLSLSLGK
light 2: DIVLTQSPASLAVSPGQRATITCRASKSVSTSGYSYMHWYQKKPGQPPKLLIYLASNLESGVPARFSGSGSGTDFTLTINPVEAEDTANYYCQHSRELPWTFGQGTKVEIKRTVAAPSVFIFPPSDEQLKSGTASVVCLLNNFYPREAKVQWKVDNALQSGNSQESVTEQDSKDSTYSLSSTLTLSKADYEKHKVYACEVTHQGLSSPVTKSFNRGEC
heavy 2: QVQLVQSGSELKKPGASVKVSCKASGYIFTNFGMNWVREAPGQGLEWMGWINTYTGEQIYADGFTGRFVFSLDTSVSTAYLQISSLKAEDTAVYFCARGEIYYGYDVGFVYWGQGTLVTVSS
notes: Trispecific antibody: GPRC5D scFv fused to the N-terminus of the heavy chain of the CD3 arm
In the case of B3, the “TDCC EC50 (nM), HEK293-hGPRC5D” value (human GPRC5D [2]) is reported as 0.278 nM, the Kd [5] is reported as 58.2 nM and the EC50 (human GPRC5D [4]) is reported as 2.7 nM.

B4: GPRC5D × BCMA × CD3 triTCE-v4 trispecific antibody (other)
light 1: QAVVTQEPSLTVSPGGTVTLTCRSSTGAVTTSNYANWVQEKPGQAPRGLIGGTNKRAPWTPARFSGSLLGGKAALTITGAQAEDEAEYYCVLWYSNLWVFGGGTKLTVLGQPKAAPSVTLFPPSSEELQANKATLVCLISDFYPGAVTVAWKADSSPVKAGVETTTPSKQSNNKYAASSYLSLTPEQWKSHRSYSCQVTHEGSTVEKTVAPTECS
heavy 1: QVQLVQSGAEVKKPGSSVKVSCKASGYSFTGYTMNWVRQAPGQCLEWMGLINPYNGGTRYNQKFQGRVTITADESTSTAYMELSSLRSEDTAVYYCARWALRYGMDYWGQGTLVTVSSGGGGSGGGGSGGGGSDIQMTQSPSSLSASVGDRVTITCQASQNVGTNVAWYQQKPGQAPKALIYSASYLNSGVPSRFSGSGSGTDFTFTISSLQPEDIATYFCQQYNSYLLTFGCGTKVEIKGGGGSGGGGSGGGGSEVQLVESGGGLVQPGGSLRLSCAASGFTFNTYAMNWVRKAPGKGLEWVGRIRSKYNNYATYYADSVKDRFTISRDDSKNSLYLQMNSLKTEDTAVYYCVRHGNFGNSYVSWFAYWGQGTLVTVSSASTKGPSVFPLAPCSRSTSESTAALGCLVKDYFPEPVTVSWNSGALTSGVHTFPAVLQSSGLYSLSSVVTVPSSSLGTKTYTCNVDHKPSNTKVDKRVESKYGPPCPPCPAPEFEGGPSVFLFPPKPKDTLMISRTPEVTCVVVDVSQEDPEVQFNWYVDGVEVHNAKTKPREEQFNSTYRVVSVLTVLHQDWLNGKEYKCKVSNKGLASSIEKTISKAKGQPREPQVYTLPPCQEEMTKNQVSLWCLVKGFYPSDIAVEWESNGQPENNYKTTPPVLDSDGSFFLYSKLTVDKSRWQEGNVFSCSVMHEALHNHYTQKSLSLSLGK
light 2: DIVLTQSPASLAVSPGQRATITCRASKSVSTSGYSYMHWYQKKPGQPPKLLIYLASNLESGVPARFSGSGSGTDFTLTINPVEAEDTANYYCQHSRELPWTFGQGTKVEIKRTVAAPSVFIFPPSDEQLKSGTASVVCLLNNFYPREAKVQWKVDNALQSGNSQESVTEQDSKDSTYSLSSTLTLSKADYEKHKVYACEVTHQGLSSPVTKSFNRGEC
heavy 2: QVQLVQSGSELKKPGASVKVSCKASGYIFTNFGMNWVREAPGQGLEWMGWINTYTGEQIYADGFTGRFVFSLDTSVSTAYLQISSLKAEDTAVYFCARGEIYYGYDVGFVYWGQGTLVTVSS
notes: as for B3
With B4 the “TDCC EC50 (nM), HEK293-hGPRC5D” value (human GPRC5D [2]) was 0.446 nM, the Kd [5] was 64.4 nM and the EC50 (human GPRC5D [4]) was 9.9 nM.

B5: anti-GPRC5D chimeric antibody 2F1 (antibody, V domains shown)
VH: EVLLQQSGPELVKPGTSMKISCKASGYSFTGYTMNWVKQRHGKNLEWIGLINPYNGGTRYNQKFKGRATLTVDKSSSTAYMELLSLTSEDSAVYYCARWALRYGMDYWGQGTSVTVSS
VL: DIVMTQSQKFMSTSVGDRVSVTCKASQNVGTNVAWYQQKPGHSPKALIYSASYRNSGVPDRFTGSGSGTDFTLTISNVQSEDLAEYFCQQYNSYLLTFGGGTKLELK
B5: binds (Cynomolgus GPRC5D); binds (human GPRC5D [1]).

B6: anti-GPRC5D chimeric antibody 2E1 (antibody, V domains shown)
VH: QVQLQQPGAELVKPGASVKLSCKASGYTFTRYWMHWVKQRPGQGLDWIGEFNPSNGRINYNEKFKNKATLTIDKSSSTAYMQLSSLTSEDSAVYYCTRGFAYWGQGTLVTVSA
VL: QIVLTQSPAIMSASPGERVTMTCSASSTVSYIHWYQQKSGTSPKRWIYDTSKLASGVPARFSGSGSGTSYSLTISSMEAEDAATYYCQQWTTNPWTFGGGTKLEIK
B6: binds (Cynomolgus GPRC5D); binds (human GPRC5D [1]).
